Measurements: publication PMC9813972

Target: AbTFM (A. baumannii tautomerase family member) (Acinetobacter baumannii)
Assay: crystal structure; sitting-drop crystals at 296 K from 0.2 M ammonium nitrate, PEG 3350; protein in 20 mM HEPES-NaOH pH 6.8, 150 mM NaCl; space group H3, one subunit in the asymmetric unit, trimer by the crystallographic threefold axis

“AbTFM (A. baumannii tautomerase family member) (natural protein)” showed a stoichiometry N of 3.
